Experimental data as given in article PMC4119840 (Biochimie, 2014).
Where “and” joins values, the source holds several entries; their conditions need not be identical. Identical values can stand only once.

Molecular target: the molecule itself
Experiment: SEC

B1: mouse Serum amyloid A 1.1 (SAA1.1), lipid-free (natural protein)
chain: GFFSFIGEAFQGAGDMWRAYTDMKEAGWKDGDKYFHARGNYDAAQRGPGGVWAAEKISDARESFQEFFGRGHEDTMADQEANRHGRSGKDPNYYRPPGLPAKY
Question: Which “stoichiometry N” value does the source give for B1 here?
Answer: 12 and 4
